According to the DeepSol protein solubility set:

Test: soluble on expression in E. coli; label from the status in PepcDB or PDB records

Sequence	soluble on expression in E. coli
SLTGQLHPAVRVADLLQHINQMKTAEGYGFKQEYESFFEGWDATKKKDKVKGSRQEPMPAYDRHRVKLHPMLGDPNADYINANYIDGYHRSNHFIATQGPKPEMVYDFWRMVWQEHCSSIVMITKLVEVGRVKCSRYWPEDSDTYGDIKIMLVKTETLAEYVVRTFALERRGYSARHEVRQFHFTAWPEHGVPYHATGLLAFIRRVKASTPPDAGPIVIHCSAGTGRTGCYIVLDVMLDMAECEGVVDIYNCVKTLCSRRVNMIQTEEQYIFIHDAILEACLCGETTIPVSEFKATYKEMIRIDPQSNSSQLREEFQTLNSVTPPLDVEECSIALLPRNRDKNRSMDVLPPDRCLPFLISTDGDSNNYINAALTDSYTRSAAFIVTLHPLQSTTPDFWRLVYDYGCTSIVMLNQLNQSNSAWPCLQYWPEPGRQQYGLMEVEFMSGTADEDLVARVFRVQNISRLQEGHLLVRHFQFLRWSAYRDTPDSKKAFLHLLAEVDKWQAESGDGRTIVHCLNGGGRSGTFCACATVLEMIRCHNLVDVFFAAKTLRNYKPNMVETMDQYHFCYDVALEYLEGLESR	not soluble
MAHHHHHHMYDVKSIHIFRKVKDKDKGKSVILRGLNDNFFNAILVCMYEIVIYLNFANCEDGSTNKPSNKKKKKKGDDRNETTYYVKSARNENNAYRSNVKEVISHNKNKKKINGASGNAAVTREEKGKAERSGDFPGGGENMNDDKENPNQITLWSSNNHEEFGYEYIKDIIKKEEKELYETDKMYHNSNDEYSSHTSDSVEQ	not soluble
MQTASVPAGIAERRTRAWAPYIDAKLGFRNHWYPVRLSAEVAEASPVPVQLLGEKVLLNRVDGVVHAIADRCLHRGVTLSDKVECYSKATISCWYHGWTYRWDNGKLVDILTNPTSVQIGRHALKTYPVREEKGLVFLFVGDQEPHDLAEDVPPGFLDADLAVHGQHRVVDANWRMGVENGFDAGHVFIHKSSILLDGNDIALPLGFAPGDPEQLTRSVTGEGAPKGVFDLLGEHSVPIFEATIEGQPAIQGHMGSKMVAISISVWLPGVLKVDPFPDPTLTQFEWYVPIDEGHHLYLQMLGRRVGSEEEARSFEAEFREKWVELALNGFNDDDILARRSMEPFYADDRGWREEVLFESDRAIIEWRRLASQYNRGIQTRDVRHHHHHH	soluble
KGTLYVVGTPIGNLRDITLRALEILSAVDCIAAEHIQHAQKLLAGHALHTTSTRIMPLHQHNEGSAVEKIIELLGSGKSVALISDAGTPAISDPGALLVQQVLARSLPVVPIPGA	not soluble
MKAKPLSQDPGSKRYAYRINKEENRKELKHVKINESSLVQEGQKIDLPKKRYYRQRAHSNPFSDHQLEYPVSPQDMDWSKLYPYYKNAENGQMTKKVTIADIGCGFGGLMIDLSPAFPEDLILGMEIRVQVTNYVEDRIIALRNNTASKHGFQNINVLRGNAMKFLPNFFEKGQLSKMFFCFPDPHFKQRKHKARIITNTLLSEYAYVLKEGGVVYTITDVKDLHEWMVKHLEEHPLFERLSKEWEENDECVKIMRNATEEGKKVERKKGDKFVACFTRLPTPAIL	soluble
KRRFELRGIVNNISVYDDFAHHPTAIAKTLAGVRAKLSQQESEQEQVGRIFAVLEPRSNTMRSGVHKESLPKSLIDADQVFIYQGEQVTWSVSDLIKQCKPACQVEDNVERLVESIAQQAQAGDIIVVMSNGGFADIHNKLLNRLANIPVPLEDA	not soluble
MGSDKIHHHHHHMSVRVNNLLKLPSLREATVLSGKNQLDTSVASLSFLEVSDMSLFSEKLHKTNEYHAGEILIGSFCAIRHDVVKQCETIRHLHELGEVGLILYYVGIIVPKVAEEVIQLADSLGFILIQMPKNDPTLRYNEVIYEVMKLLVNKNKMASFATDLLEKVSLLPEQNRSVEMTLKILSDFLKVNIALTTYTNEIISTINWPRSTKLPLTKLLYQSQEKVALGETTYFITSQKLPQKDGQTLKLYFIREEEQLTSFEMNQAVEVVQMALNLWGKNYDEVSEYALVQAIINDESDKMYQLAKKLMIDISSVETMWLLPIWQQGQEIHAIQQDLKDFLRYYYQTTIVQQTENYLIVLLGNYLHKQPEATISKEYLQATDYQDYLGEIILCPKVRNTTEVRVSYQTANQVAPFLKRVYPQRKVLSIAEIRTVQQMMTCLQAGEEAIQQRLAVIQPLLKESEQLMTLGTFLLDASSDFNECGERLFVHKNTVKYRISKINEALGYDMTNAAEAYEVYLAMILYRLVTNE	not soluble
MVEVLTLGVIQTTLDSTAAWNTDSGEPKISASEDSRAWYEIRRAMRALADHEDQPRIILLPELALPRTRLDDFERLVCSMNALAIVGVDYRLNHRTKSAKNEGLVLVPRNFWKRTPSRYAARVWFGKRDPAPAEASGFKEYMPPWAFHSDPNVYVFDAGPYGRIGVSICYDFMDIERALLYRGRVHHLFVIAYNRDVKLFESLAVSLSRTAFCNVVVCNTGYFGGSLVVSPYYEAFKRIGYSVDGGKVFTAQCVPLPVRDLDAAIHGFDTKPNATYKHLPPGFTTSMDHTAALPEGPSAVAIPLFTSDLEHHHHHH	not soluble
MSLRPTIYDVAKAAGVSKSLVSLVLRGSPNVSKESEAAVKTAIKKLNYQPNRAASDLAAKRTQLIAVLIDDYSNPWFIDLIQSLSDVLTPKGYRLSVIDSLTSQAGTDPITSALSMRPDGIIIAQDIPDFTVPDSLPPFVIAGTRITQASTHDSVANDDFRGAEIATKHLIDLGHTHIAHLRVGSGAGLRRFESFEATMRAHGLEPLSNDYLGPAVEHAGYTETLALLKEHPEVTAIFSSNDITAIGALGAARELGLRVPEDLSIIGYDNTPLAQTRLINLTTIDDNSIGVGYNAALLLLSMLDPEAPHPEIMHTLQPSLIERGTCAPREGHHHHHH	soluble
MYVVKSANDGGNSLFLSSSDIVNQLSKTETGKKHLKTLTGNLYPFKTPASFDKKQGVRWGNILSVNTQMIRFRSDCIYKGIEENRNKVSKEMVLALDYLINVIKNASDIQEFSAQDDGLIIIDNVNGLHARTDYTDKNRHYIRARITV	not soluble
MSLTEPEDPSRERLKHHFAQRVIHQARQILEIWQRLQRSEWSTTDMSELCEANLRLLRFAERFEQPEHTQLARSISQSLEAVDANRGRLSSNLITDLNRLMQRLSRTGLRHGDQLEQTFLPPLRKPIYVMLQDHDRAERLAKQLEFFGLSAQSLDSIPAFRSSMVERLPAAIVIDVDFCGAGMGLTLAAEAQVGLEQKLPLLFFSLHETDTPTRLAAVRAGGQEFLTGTLEASSLLEKIEVLTCVAQYEPYKVLIIDDSRAQALHTERLLNSAGIVTRTLIEPIQAMAELADFQPDLIILDMYMPACTGTELAKVIRHNDRYVSVPIIYLSAEDDLDKQLDAMSEGGDDFLTKPIKPRHLITTVRNRAARARNLKARMVRDSLTGLYNHTHILQLLEDCSFRARREGKPLSFAMLDIDHFKRVNDSHGHPMGDRVIKSLALFLKQRLRKTDFIGRYGGEEFAIVMPDTDQDAACKVLDEIRQRFAEIHYPAQPQDLWCTFSAGVVEMQEDSDSLIMASQADEALYRAKHGGRNRVQAARSSQSAIFSSESTDSVITLEGHHHHHH	soluble
MYTLNWQPPYDWSWMLGFLAARAVSSVETVADSYYARSLAVGEYRGVVTAIPDIARHTLHINLSAGLEPVAAECLAKMSRLFDLQCNPQIVNGALGRLGAARPGLRLPGCVDAFEQGVRAILGQLVSVAMAAKLTARVAQLYGERLDDFPEYICFPTPQRLAAADPQALKALGMPLKRAEALIHLANAALEGTLPMTIPGDVEQAMKTLQTFPGIGRWTANYFALRGWQAKDVFLPDDYLIKQRFPGMTPAQIRRYAERWKPWRSYALLHIWYTEGWQPDEA	soluble
MGSDKIHHHHHHMKVLFRSDSSSQIGFGHIKRDLVLAKQYSDVSFACLPLEGSLIDEIPYPVYELSSESIYELINLIKEEKFELLIIDHYGISVDDEKLIKLETGVKILSFDDEIKPHHCDILLNVNAYAKASDYEGLVPFKCEVRCGFSYALIREEFYQEAKENREKKYDFFICMGGTDIKNLSLQIASELPKTKIISIATSSSNPNLKKLQKFAKLHNNIRLFIDHENIAKLMNESNKLIISASSLVNEALLLKANFKAICYVKNQESTATWLAKKGYEVEYKY	not soluble
MGSDKIHHHHHHMSLCYEEALFLEKDLERLKALRTIAPMNEILDHAEVAALAEGIGKAVLGETITQVIDDYRKQLLGDKSFAASMSHLSRQEITLHLVQELKDKLDAQDSTCLKKLINATGIVLHTNLGRAPLPDSAIGLIQEVNEGYSNLEFDLETGNRGSRHTHIEPLITRLTGAESAMVVNNNAAAVFISLNTLAKQRDVIISRGQQVEIGGSFRIPDIIASSGCTMIEVGTTNKTKPDDYAKAITENTAVLLKVHTSNYKISGFTEEVPLQDLVELGKIKNVLVMEDLGSGCLYDLSKIGLPHEPTVQEVIAGGADLVTFSGDKLLGGPQIGVIAGKKALIDKIKKNSFARIVRCDKSSIAALTAVLKLYMNPEKALAQIPALNMLALKEADLLLRAEELERQLQAALGERCQVEIVDVHDEAGGGSLPDVLLKGKAVSLTIDGLSANRLQELLRQEPIPIICRIVKDKVLLNVRTMSEKEFPLITQTMQNIVG	not soluble
MGSSESIVKLNVGGTVFVTLKSTLTKHHGIFKALVKTEMPAEDGDSFFIDRSPKHFETVLNYIRSGDVDLPDSENELKELKREAEYYSLEKLATLCQSSMPKIKSYKTADELLNMIANTKKVVVVIHYLAYKNQLHTIPLGFKFSEFVERNKDKAEVFIYEIKDEEELKDKPYVDDPNRVWSFCIFNSEWSENYPLKSLRDIQVQLDCFGDF	not soluble
MSATKSEMPADVASVTDSSAASPAFPLIGDFLEEFLKCQVCCTNYNETTKLARGLHCGHTFCTECIKTMQKYGNSAYLECPSCRAETKCDIAAVSTNFAIMELIRKCGFLGPEKPEEPPMKQAAQPQLEQTIDELIDEGYRLLIADVKADLMAKFEQLRDVSKTSTIEATKADLEVLCDSVKEAVYEADLEYSYDEEESDEDEEENEDEEDVEEEEEKPCAEKKSPAQPERSSSLVRGFQIGLSRLFRNRRIHTEHLQVDHGAIATKLETRAACTEKSDNVKK	not soluble
MSLRFTTISKAYDNVTTDDTQYRILIVEDDRSQALFAQSVLQGAGIHAQIEMSASEVLKVIEDYRPDLILMDLNMPELDGISLTTLIRQQPNQLLLPIVFLSGDTDPEKQFEVLDSGADDFLTKPIQPRHLIAAVSNRMHRLRQQQQNAQQADTQINIQKTSITELQTRIHIVEQLEVALSSGAQGALFFIEVSSALNLRTRYGYTAFERLMNQVEYHLAQEAHPYSLARISDHSFLLLAIDLAATEHQALATHLREHLATLPLPIQDDELVHLRSAIGYAPLNQGFKNADDAVECTESATLEARQNNEGIYAYVPLRTPENTGHLALLDGQLELAYQPIVEVAGSDTAQYQVLLRLRKADGNLLSAGLVIPAAEAAGRIMELDQQVIEQALDILKLHQDTNQQLRLFVSQSVRTLIHEGFSDWIIKNLRERNVNGTGLVIDLRLQDAVIHAIPLKQLCKELLKHNVKFCLSQFESNSEATVLFSELPLNFVRLSQHFGDAHNHPERQKELPLLIEQAHEHNLHVIGQCIEDAQAATFMWMNGVDLIQGNLFQNVSKDLNFNFHDMVLEGHHHHHH	soluble
MGSDKIHHHHHHMTLGIAFVGSGFSAKFHLRGLVGVRNVEVKGVYSRNLNSSKEFAMLSEQLGLGKPKVYSDISKMLSDKEINAVWLTVPNDVHLEYTKLIAEEVSQGRSNIHGITIEKPLARNVKEAKEMIRLVEKAGLLHGYLENQIFMPSVVRAREAIWEIGSRNSGRPYLARAAEEHSGPHNSWFWRPTISGGGALIDMTCHSLEATRFLLTDPAKTKSSLKPKTVYAETKTLKWNKKEYAQYLKEKYNVDFLKEPAEDYALTIVTYEDDLGNSVLAETRTSWNYVGPGLRLSVEVLGPEYSVNINTLQSELSVFFSRNIKLPQSEAFVEKQNADQGLMPIILDEAVVYGYQGEDRHMVESFISRKMPFENWYDGLLIVQLMMHAYLSAENGRKISFDPQKVEDFIPKVARGLYSAF	not soluble
